Test results taken from US20240226314A1 (Sanofi, published 2024).
Read-outs that look alike come from different tables or passages of the source.

Experiments:
[1] = target: T1, His-tagged cynomolgus monkey TfR ectodomain (cyTFRC_89_760; mature protein) (cynomolgus monkey (Macaca fascicularis), UniProt Q5RDH6 89-760 (Pongo abelii entry)); test: SPR; KD on cTfR against KD on hTfR
T1 construct: also called cTfR; cTfR ectodomain
T1 chain: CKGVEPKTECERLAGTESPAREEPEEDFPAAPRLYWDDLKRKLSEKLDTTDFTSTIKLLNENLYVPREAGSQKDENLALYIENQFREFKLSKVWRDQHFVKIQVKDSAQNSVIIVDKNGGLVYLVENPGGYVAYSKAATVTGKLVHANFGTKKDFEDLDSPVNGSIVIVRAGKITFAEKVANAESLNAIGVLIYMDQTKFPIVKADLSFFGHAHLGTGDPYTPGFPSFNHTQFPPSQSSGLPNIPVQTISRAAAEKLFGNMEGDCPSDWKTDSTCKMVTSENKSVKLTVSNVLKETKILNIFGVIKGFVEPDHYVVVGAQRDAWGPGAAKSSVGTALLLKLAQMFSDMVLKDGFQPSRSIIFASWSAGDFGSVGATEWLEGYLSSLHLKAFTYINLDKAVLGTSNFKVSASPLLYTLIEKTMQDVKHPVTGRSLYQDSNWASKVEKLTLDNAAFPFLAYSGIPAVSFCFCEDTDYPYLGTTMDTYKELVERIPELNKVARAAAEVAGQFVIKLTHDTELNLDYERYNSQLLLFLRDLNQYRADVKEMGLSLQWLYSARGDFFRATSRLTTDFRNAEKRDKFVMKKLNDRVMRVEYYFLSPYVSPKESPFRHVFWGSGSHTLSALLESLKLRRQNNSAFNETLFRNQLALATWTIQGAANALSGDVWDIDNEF
Description: (§1) Experiments were run on Bruker MASS-2 instrument with HBS-EP+ as running buffer and sample diluent (Cytiva Life Sciences, #BR100826). HCA sensorchips (Bruker, #1862614) were immobilized with anti his antibody (His capture kit, Cytiva Life Sciences, #28995056) following provider's instructions. About 10 000 RU of anti his was obtained. […] Surface was regenerated with one 1 min pulse of 10 mM Glycine-HCl pH1.5.

[2] = target: T2, His-tagged human TfR ectodomain (hTFRC_89-760_G142S; mature protein) (human, UniProt P02786 89-760); test: SPR, His-tagged TfR ectodomain captured on anti-His, 1:1 fit
T2 construct: It carries the G142S haplotype; also called hTfR ectodomain
Description: as §1

[3] = target: T1, His-tagged cynomolgus monkey TfR …; test: as above
Description: as §1

[4] = target: T1, His-tagged cynomolgus monkey TfR …; test: SPR; KD on cTfR against KD on hTfR
Description: (§2) Binding of the humanized Fab variants to human, cynomolgus and mouse TfR was assessed using SPR at pH 7.4. Experiments were run on a Bruker MASS-2 instrument with HBS-EP+ as running buffer and sample diluent (Cytiva Life Sciences, #BR100826). HCA sensor chips (Bruker, #1862614) were immobilized with anti-His antibody (His capture kit, Cytiva Life Sciences, #28995056) following manufacturer's instructions. About 10,000 RU of anti-His was obtained. His-tagged hTfR ectodomain (SEQ ID NO: 39), cTfR ectodomain (SEQ ID NO: 40) or mouse TfR ectodomain (SEQ ID NO: 41) (5 μg/ml) was captured for 1 min at 10 μL/min. Concentration series of the humanized Fab variants were then injected for 4 min at 30 μL/min over hTfR surfaces and dissociation was monitored for 5 min. Surface was regenerated with one 1 min pulse of 10 mM glycine-HCl at pH 1.5.

[5] = target: His-tagged mouse TfR ectodomain (mTFRC_89_764; mature protein) (mouse, UniProt Q62351 89-763); test: SPR, His-tagged mTfR ectodomain captured on anti-His
Chain of His-tagged mouse TfR ectodomain (mTFRC_89_764; mature protein) (Q62351 other isoform, or with tags, fused parts or gaps): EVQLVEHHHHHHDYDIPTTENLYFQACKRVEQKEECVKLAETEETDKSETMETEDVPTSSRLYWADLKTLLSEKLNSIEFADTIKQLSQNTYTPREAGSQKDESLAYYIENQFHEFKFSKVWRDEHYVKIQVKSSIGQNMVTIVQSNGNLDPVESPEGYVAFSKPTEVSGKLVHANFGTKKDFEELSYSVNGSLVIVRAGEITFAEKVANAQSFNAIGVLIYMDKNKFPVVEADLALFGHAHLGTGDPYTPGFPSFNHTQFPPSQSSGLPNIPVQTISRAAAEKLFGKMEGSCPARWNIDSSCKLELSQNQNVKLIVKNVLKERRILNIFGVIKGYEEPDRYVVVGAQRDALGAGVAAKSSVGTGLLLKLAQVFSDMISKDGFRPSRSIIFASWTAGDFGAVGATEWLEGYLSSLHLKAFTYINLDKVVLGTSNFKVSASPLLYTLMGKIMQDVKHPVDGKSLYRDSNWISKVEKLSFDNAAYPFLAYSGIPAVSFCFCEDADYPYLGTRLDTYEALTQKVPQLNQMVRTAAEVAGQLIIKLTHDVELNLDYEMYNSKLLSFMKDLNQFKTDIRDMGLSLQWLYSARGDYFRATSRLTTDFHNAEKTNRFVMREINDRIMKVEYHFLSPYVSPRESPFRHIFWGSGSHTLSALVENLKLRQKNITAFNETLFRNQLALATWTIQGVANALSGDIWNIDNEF
Description: as §1

[6] = target: T2, His-tagged human TfR ectodomain …; test: SPR, His-tagged TfR ectodomain captured on anti-His, 1:1 fit; remark: listed apart in the source
Description: as §2

[7] = target: T1, His-tagged cynomolgus monkey TfR …; test: as above
Description: as §2

B1: 531-1L2_mouse mAb (antibody, IgG1, V domains shown)
VH: QVQLQQPGAELVSPGASVKLSCKASDYTFTRYWLNWVKQRPGQGLEWIGMIDPSVSECHYSQMFKDKATLTVDKSSSTAYMLLNSLTSEDSAVYYCSQIRLPYYYAMDSWGQGTSVTVSS
VL: DIQMTQTPSSLSASLGDRVTISCRASQDINSFLNWYQQKPDGTVKLLIYYTSRLHSGVPSRFSGSGSGTDYSLTIGNLDQEDIATYFCQQGNTLPRTFGGGTKLELK
notes: constant regions are not
Cynomolgus/human KD ratio [1]: 3.9 | Kd [2]: 6.9 nM | Kd [3]: 27 nM | Cynomolgus/human KD ratio [4]: 3.9 | binding result [5]: no binding | Kd [6]: 6.93 nM | Kd [7]: 27 nM
